According to the DeepSol protein solubility set:

Assay: soluble on expression in E. coli; label from the status in PepcDB or PDB records

Row | Sequence | soluble on expression in E. coli
1 | MGSDKIHHHHHHMINHHPNSDVLAQFVAGTLPASVSVLVASHVELCSECTRAVQALTEQAAIDAFGESSQEALRDASQPAGLADVSGLDDFDGLDDFDTSDQFGDSDEFADCINAITALERDDTQQLPQTVTEIAVGGERIPLPTALRSIPLKEWQGMGKLSRSRLALDDGDLRMSLLHIDKGGSVPCHTHKGFEITLLLQGSFTDEMGEYRKGDFIWLDGQHTHQPVTEKGCVCLTVSSDAIRFTQGVSQLLNPIGRFIY | not soluble
2 | MGSDKIHHHHHHMINKHVISEKIKKAIVEANIKINPEVEEIIERYEGPFSDIIKENYRVSKEEKLPLCQDTGIVEFFVFIGHEVKLEEPIEETLNRAVGEVYSEYPFRYSVVSDPLFERINTGTNTPAIVHIFQVKGKSLEIRFLVKGGGSENLTVLRMMTPTSDVEKVKEFVIEHIKEHGAKACPPLHVGIGIGGTADKALLLSKLALTKSFKERNKDPKYAGLEKELEKELNFLGIGFQGLGKGITVYSVHIEHFPTHIATLPVAVSVDCYLCRRGKVTFED | not soluble
3 | MGSDKIHHHHHHMINLSKKLIRQVAQANAKFGLIKDGDRVLLGLSGGKDSLALAHLLNRMQAHAPFKFELEAVTLSYGMGEDYSHLHAHCEEHGIKHSVLDSNIYEVSGDTIRENSSFCSYFSRMRRGALYTYALEKGFNKLAIAHHLDDAAESFFMNFIHNGALRTLAPIYQSKRGITVIRPLIFVRERQLRDNATQNELSVIGNEFCPGMKLSEKNVKFPHAREEAKQLLANLEKDHPKLFTSLKTAFANLHTESFWLQKA | not soluble
4 | MGSDKIHHHHHHMINQVYQLVSPRQFEATFKTIDLHNHNSKVIVRPLYLSICAADLRYYCGNRDSKILSKKLPMSLIHESVGEIVYDSEHRLKNGTKVVMIPNTPSKSHNIIAENYLTSSHFKSSGYDGFMQDYIVMKPDRVVTLPQEIDLSVASYTELVTVSVHAIDRFQSKAIPQFESLGIWGDGNLGYITAVLLKKLYPTTKIIVFGKTLYKLSRFSFVDEIIQIDNIPQHIKIDHAFECVGGKGSQQAIEQIINIINPEGSIALLGVSELPIQVNTRMVLEKGLTIIGSSRSGLKDFEKTIELYRKYPEVLNQLALLKGKEFEINTIEDLITAFEYDISNAWGKTVLKWNI | not soluble
5 | MGSDKIHHHHHHMIPIKVSMRNLSSLTIAGGSTISSIDIPLNPLGVPPSTIKGTMRTAVHNLLPNGYTSCGEVEPESIREAHKNGVCDVCKLFGYPDSLTGCFTIDVSKTDYRTSYITRVSIDDKTQRAKEGSLFTQQIILPNSDISFTVYYNCNDERLFKLLLYSILDLRYWRLGRNTMIDVKVNNVEEICKSVKCDEEINGILNQLSRYLWEAENK | not soluble
6 | MGSDKIHHHHHHMIQNTFNIAGGVARNPLVRLAAPITATISAGEHIAIVGPNGGGKSLFVDTLIGKYPLREGTLQYDFSPAATQTVYDNVKYIAFRDTYGAADANYYYQQRWNAHDQDEAPDVREMLGEIKDEQLKQELFELFRIEPMLDKKIILLSSGELRKFQLVKTLLTAPRVLIMDNPFIGLDAPTRELLFSLLDRLTKMSSVQIILVLSMLDDIPSFITHVIPVDKMTVYPKMEREAYLEAFRSRDAAVSFDELQQRIVNLPYDGNNYDSDEVVKLNKVSIRYDDRTILKDLDWTVRRGEKWALSGENGAGKSTLLSLVCADNPQSYACDISLFGRKRGTGESIWEIKKHIGYVSPEMHRAYLKNLPAIEIVASGLHDSIGLYKRPQPEQMAICEWWMDIFGIAELKDNPFLQLSSGEQRLALLARAFVKDPELLILDEPLHGLDTYNRRRVKKIIEAFCHRKDKTMIMVTHYESELPGTITDRIFLKRNR | not soluble
7 | MGSDKIHHHHHHMIQPRIRQNPFETYEEVAEGFEDLLAPLELFFDREYQGHLDLGTHGTVYSKGTRDAEAFLRPLWGLGPYVTQNESEYLNDFLTGIIEGTDPESSSYWGKTKDYDQLIVEMAALSTFLLLNKEKTWDQLTKEQQNNLHSWLIQANENIIPPNNWHFFRVLLNLAMKHCEMPYSKEQIAVDLAVIDRFYVGNGWYYDGVETQVDYYVSFAIHYYSLLYCRFAPEDTARVAIMKERATLFAQEFKYWFTQPGEAIPFGRSLTYRFAQVSFFSALVFADVEALPWGEIKGLISRHLHQWMNKDIFTTDGLLSVGYDYQNMVFAEGYNGPGSPYWAFKTFILLAVPKDHPYWQAETQPISFPEKHLPSPESRNYYQVNDAGTHGLMFPAGQFINYQAHAHDKYSKFVYSSHFGFSTIKSDYWYYEGAYDNCLALAEDDHYFRTKGLDDQYEILDDRIIHQWHPWSDVAIKTTIVPLEGQHLRIHEIETQRALVAYEGGFSIPLFDEKVTCVSDQMAEVKNAKGVSKVENINGFSEAAIIRTEPNTNLLYPLTELPYLKANLSKGKHLLISLVTGVLPNEQIEPVKVRLKENQLLVEEKVVILGN | not soluble
8 | MGSDKIHHHHHHMIRIENISKQNSHRLLFIEASAALNKGEKIGLVGPNGAGKTTLFRMITGEELPDEGQVATEKGVTIGYFNQDVGEMSGRSAVAEVMDGAGPVSTVAAELRELEGAMSDPDRMDEMDAIIERYGEVQARYEELDGYALEGRAREVLDGLSFSQEMMDGDVGKLSGGWKMRVALARILLMRPDVMLLDEPSNHLDLESLIWLESFLKNYDGALLMTSHDREFMNRIVTKIIEIDGGSLTSYSGDYGFYEGQRAQNEKQQQAQFERQQAMLAKEIKFIERFKARASHAAQVQSRVKKLDKIDRVEPPRRRQTVAFDFLPAPRSGDDVINIKNVHKAYGSRTIYQGLDFMVRRRERWCIMGINGAGKSTLLKLVAGTTEPDQGTVSIGASVKLGYFAQHAMDVLDGDSTVLQWLEESFPKAGQAPLRALAGCFGFSGDDVEKRCRVLSGGEKARLVMAAMLFDPPNLLVLDEPTNHLDLDTKEMLIKALSAYEGTMLFVSHDRHFLAALSNRVLELTPDGIHQYGGGYTEYVERTGQEAPGLHAA | not soluble
9 | MGSDKIHHHHHHMIRIKTPSEIEKMKKAGKAVAVALREVRKVIVPGKTAWDVETLVLEIFKKLRVKPAFKGYGGYKYATCVSVNEEVVHGLPLKEKVFKEGDIVSVDVGAVYQGLYGDAAVTYIVGETDERGKELVRVTREVLEKAIKMIKPGIRLGDVSHCIQETVESVGFNVIRDYVGHGVGRELHEDPQIPNYGTPGTGVVLRKGMTLAIEPMVSEGDWRVVVKEDGWTAVTVDGSRCAHFEHTILITENGAEILTKEG | soluble
10 | MGSDKIHHHHHHMISDLESLGIDFKDEGENYVPKKDYSGNLVAKYVFDSNGISTDNITLKDLSGHGYDGTMSGVSIKDDSELGKCAYFNGSASVNFNNQIIPKGNKTIIITFKKDSGTQSNGQYEFLIEQGSGQGESITSWSIRFDSYKTACLNNLYFCNDDSKINMLNSHPAVFNVCDGKKHTAIFNYYDNKTNNTYCDSLKAHVCSFDFNGGEYRTADNSIIGQKYVGYIKSIEIYDDVVEFNSISTGTSLNKNIDQLIIGQTDNLVATIMPEDVTDKSVIWSSSDPSIVAVDENGKITALKVGEVSITVTTNDGSNLSQTCMVAVIDTTIPDKACLNISMTNGQVKQYYVGMDLVNKFISWYKLRSAGSEEPFYEFDITQLSEPGILRHDYVVFNKISSFTVDDYVK | not soluble
11 | MGSDKIHHHHHHMISRTMQQQVNSSSIIRAMFEEGKRLSALYGADNVYDFSLGNPNVEPPAEVKQAIMDILNEENSTTVHGYMNNSGFEDVRGAIAASLNQRFATGFAADNILMTVGAAGGLNVIFKTLLNPEDEVLTFAPFFGEYRNYVQNYQGQLIVVSPNTKDFQPNLEELKEKISPRTKAVLINSPNNPTGVVYSAETIAALVDILRAKQEEYGTVIYLIGDEPYRELAYDQVEVPYLTKYYENTIVGYSYSKSLSLPGERIGYLVIPREAADYENLIAAANIANRILGFVNAPSLFQRVIAKCLDAQVNLDSYNRNRELLYNALVSYGYQCIKPEGAFYLFIKTPLENDLEFCTLAKSKNILIVPGTSFACPGYARIAYCVAYETIERALPGFEALINEVSWASA | not soluble
12 | MGSDKIHHHHHHMISVGKGKIMITPDHNIIKPIAIVLPQFHPIRENNLWWGEGFTEWTNVVKGRPRFRGHYQPHLPKDLGYYDLRLPETRKAQAALATKYGIYGFCYYHYWFNGRRILESPVDAMLESGEPDFPFMLCWANENWTRNWDGSYNKVLLEQKYSKEDFVNHARHLIRYFKDDRYIKIDGRPVFAIYKDDIGEDIEKYLLLFRNELLKNSINVFLCRFERNIGTSRDLNRAFQVFDAGIEFQPLARQFSYLINYNNRLSRRIYKTLKKHFCFCKNIDDVYVYSHLVDNDLKYDFQQGWPIFPGVCPGWDNSARRRDTTAIIFDKSTPEIFKLWVREKIRITDWNLLPERFLFVNAWNEWAEGNHLEPCEKWGTQYLAALQAGINEM | not soluble
